Assay results reported in the DeepSol protein solubility set.

Experiment: soluble on expression in E. coli; label from the status in PepcDB or PDB records

Sequence | soluble on expression in E. coli
RQIQKKIESGELKAAPEIVEADAECCGQHEICEKESLLAAVSKKIEYYDDEELDRFRGRPSNGYNEEEVEEFREIMYTCKEDEVAGWSRSLQLRGIELPDELKDELFLIVGERRFK | not soluble
MHRLRNLREDVSDGSLGHGGGGLMYDVVVVGAGPAGSMAAKTAAEQGLKVLLVEKRQEIGTPVRCAEGISRESIEKFFEVDKKWIAAEVTGAKIYAPNKTEIVMSEEMAGNEVGYVLERKIFDRHVARLAAKAGAEVYVKTAMVDFERKDGKVKVKLRRLGEDWEVETKILIGADGVESKIGRKAGIIKTLKLNEVESCAQYLMTGLDIDESYTYFYLGRELAPGGYAWIFPKGNGSANVGIGVLPKMAERTAKEYLDAFIEKEGIEGKIVEFVAGAVPVYGEIETAVADNIMLAGDAAYHADPITGGGIANALSAGYYAGKVAAEAVQKNDFSADFLRRYDELWKNDFGKKLRRNKKLQLKFIDMDDALLNKLAGAIAGKNLREMSVAAIVKELLKAHPKLLWDLKDLFLEHHHHHH | soluble
MGHHHHHHSHMGLWQQISNCMPDLALCSDIKFFLRCLERWLNRNSSALQLPARSTQKEIISAFPTKVPSSSHWDWLDSGCSPQKASRSRVGCRLTREAQGVRELPPLAKGSCEGLCREERGIPAQILCFPHGLCNPQTRRFPWVPAPPGPWVSSKKLGSHLGRH | not soluble
MLTSEIAACCKKLRLSRNIVEMSGKIQADNHQEYLLKLLKSEIIHREKTRNAKLLRKAGFYTIKTFESFRFDEVTLPGDITPEYLKECEFVKNKTNIVMYGNVGTGKTHLSIALGVEACKRGYEVRFFRTSALVNKLAEEKRVGTLSSFLKKLNKAELLICDEWRYVPLDRIGAQLLFEVISERYENKAVIINTNIEFSRWVNIFYDEQMTGAIVDRILHHCHLLLFFGQSNRMRESRLNT | not soluble
MGSDKIHHHHHHMSDFSPIAWTEGMFLRPQHMQQQERFLQHQQARTAKNNNPLAWGVVSYEVNYGLLPLGQFGLDRIDCVFPDNTLACLPEQSPLPTAITVPAGTLDQLVYLVLPVAKSNGMNISSSEQNQITRYSYEDHNIVDTSVGSDAMEVLQVAKLDCRLKLQSEDRSGYVSIAIARVIDVSEEGVIRLDKKFIPACIGIEHIKTLMNMTTEVTGMINQRAEAIAGRLSQSQGTSSSIADFLMLQLLNKYQPIFEHYGVVNHIHPELLFRTLISFSGELSTFSSPNKRPPKFPVYQHDNLTYVFSNTMVIVNHGLSSVLEQSATELILEKTKFGVYFSTIADKSMLDNAEFILAVKANVPHDELRQRLPSQIKIGSVETIRELVNNQLPGIGISNLPVAPRQVPYHAGYHYFQLDKNNSHWIKLKSSGGVAMHISGAYPELQIELWAVSI | not soluble
MSLKVFLKKGKEKKVKHFYPWVFRDEVEKIEGEGIVAELYDSEGNFLALGTYSPYSRIAFRVLSYEREEVNEEFFKRRLRESELLRRDIPSNAYRLAFSESDLLSGLIIDRYGDAFVIQVRSYPMEILKEKVLKTLVEEFNPAFVYERSDFKGRREEGLKEFKGLLYGKLENPLIIEEREFKFLVDVVEGLKTGFYLDQRDNREYVRNLVKEGDRVLDLFCYSGGFSVYCANRGAKVVGVDINKRAVELARENAKLNSVKADFVLGNAFDFIQESKEEWDLIIADPPAIAKTKKEKESILWAIWKLAYYSFQKLKKGGSLFICSCTYQISSEEMIRQVRLASTDVKRRIIIKSLNLQPIDHPYLPTFPESLYLKCLHAIVIDEGHHHHHH | soluble
MSLQRFNQRVWMMFGEFNLIDKYFSNRQAQRKDVHLALGDDCAIVKVPENSRVAISTDTLVAGTHFLAQANPAWVAHKALASNISDLAAMGATPAWVSLALTLPEIDDAWLTPFCDAFFELAKYYNVQLIGGDTTKGPLSITLTVQGFLPKEQAMLRSGAKVGDWLYVTGDLGDSQAGLDVILDPEKRHLPFADILEQRHYLSTPRIVAGQALVHLASSAIDISDGLIADLQHILRRSNVGASIDVSLLPLSKELLQFVDSVTSAQQYALTSGEEYELCFTIPEENRGSLENALAHCGTKVTCIGQIRPAGTFELHNQGKKLDWQLAGYDHFKVKAEGHHHHHH | soluble
MMMLPEACIANILAFTSPADAFSSSEVSSVFRLAGDSDFVWEKFLPSDYKSLISQSTDHHWNISSKKEIYRCLCDSLLIDNARKLFKINKFSGKISYVLSARDISITHSDHASYWSWSNVSDSRFSESAELIITDRLEIEGKIQTRVLSANTRYGAYLIVKVTKGAYGLDLVPAETSIKSKNGQISKSATYLCCLDEKKQQMKRLFYGNREERMAMTVEAVGGDGKRREPKCRDDGWMEIELGEFETREGEDDEVNMTLTEVKGYQLKGGILIDGIEVRPKT | soluble
